B1: Caspase-9 (enzyme, UniProt P55211 1-416, looked up)
chain: MDEADRRLLRRCRLRLVEELQVDQLWDALLSRELFRPHMIEDIQRAGSGSRRDQARQLIIDLETRGSQALPLFISCLEDTGQDMLASFLRTNRQAAKLSKPTLENLTPVVLRPEIRKPEVLRPETPRPVDIGSGGFGDVGALESLRGNADLAYILSMEPCGHCLIINNVNFCRESGLRTRTGSNIDCEKLRRRFSSLHFMVEVKGDLTAKKMVLALLELAQQDHGALDCCVVVILSHGCQASHLQFPGAVYGTDGCPVSVEKIVNIFNGTSCPSLGGKPKLFFIQACGGEQKDHGFEVASTSPEDESPGSNPEPDATPFQEGLRTFDQLDAISSLPTPSDIFVSYSTFPGFVSWRDPKSGSWYVETLDDIFEQWAHSEDLQSLLLRVANAVSVKGIYKQMPGCFNFLRKKLFFKTS
notes: also called procaspase-9; procaspas-9

In test [1] the target is T1, Nod1 mutant, residues 126-953 (human, UniProt Q9Y239 126-953).
T1 construct: also called mutant lacking the CARD
T1 sequence: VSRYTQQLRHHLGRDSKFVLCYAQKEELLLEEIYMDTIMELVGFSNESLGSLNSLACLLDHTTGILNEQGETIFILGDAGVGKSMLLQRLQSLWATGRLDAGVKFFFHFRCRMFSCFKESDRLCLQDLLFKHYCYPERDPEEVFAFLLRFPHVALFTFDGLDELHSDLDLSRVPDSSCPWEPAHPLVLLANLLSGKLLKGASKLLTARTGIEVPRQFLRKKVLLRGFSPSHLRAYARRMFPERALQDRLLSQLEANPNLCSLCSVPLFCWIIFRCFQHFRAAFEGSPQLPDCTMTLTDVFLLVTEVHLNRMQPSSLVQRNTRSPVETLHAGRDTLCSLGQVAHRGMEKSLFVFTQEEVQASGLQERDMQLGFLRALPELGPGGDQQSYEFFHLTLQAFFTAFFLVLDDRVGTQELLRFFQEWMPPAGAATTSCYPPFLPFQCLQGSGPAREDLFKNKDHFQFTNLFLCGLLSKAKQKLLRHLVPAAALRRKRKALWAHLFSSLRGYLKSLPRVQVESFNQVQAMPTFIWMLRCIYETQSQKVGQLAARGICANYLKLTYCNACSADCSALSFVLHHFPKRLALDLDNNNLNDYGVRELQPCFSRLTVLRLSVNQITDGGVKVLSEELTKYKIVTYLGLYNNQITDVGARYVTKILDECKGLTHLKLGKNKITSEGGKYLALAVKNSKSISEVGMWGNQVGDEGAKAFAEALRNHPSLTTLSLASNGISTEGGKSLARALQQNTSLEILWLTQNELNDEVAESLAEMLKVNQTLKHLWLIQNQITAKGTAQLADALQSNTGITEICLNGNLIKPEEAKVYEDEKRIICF
Briefly: co-immunoprecipitation from co-transfected 293T cells, immunoblot. From the text: (§1) Both Ced-4 and Apaf-1 associate with their target caspases via their corresponding CARDs (Zou et al., Cell, 90:405 (1997); Hu et al., Proc. Natl. Acad. Sci. USA, 95:4386 (1998); ); Chinnaiyan et al., Nature, 388:728 (1997); Hu et al., Proc. Natl. Acad. Sci. USA, 95:4386 (1998); Srinivasula et al., Mol. Cell, 1:946 (1998); Chaudhary et al., J. Biol. Chem., 273:17708 (1998); Yang et al., Science, 281:1355 (1998)).

In the next test the target is T2, Apaf-1 (UniProt O14727-3 1-1194, limits assumed).
T2 sequence (looked up): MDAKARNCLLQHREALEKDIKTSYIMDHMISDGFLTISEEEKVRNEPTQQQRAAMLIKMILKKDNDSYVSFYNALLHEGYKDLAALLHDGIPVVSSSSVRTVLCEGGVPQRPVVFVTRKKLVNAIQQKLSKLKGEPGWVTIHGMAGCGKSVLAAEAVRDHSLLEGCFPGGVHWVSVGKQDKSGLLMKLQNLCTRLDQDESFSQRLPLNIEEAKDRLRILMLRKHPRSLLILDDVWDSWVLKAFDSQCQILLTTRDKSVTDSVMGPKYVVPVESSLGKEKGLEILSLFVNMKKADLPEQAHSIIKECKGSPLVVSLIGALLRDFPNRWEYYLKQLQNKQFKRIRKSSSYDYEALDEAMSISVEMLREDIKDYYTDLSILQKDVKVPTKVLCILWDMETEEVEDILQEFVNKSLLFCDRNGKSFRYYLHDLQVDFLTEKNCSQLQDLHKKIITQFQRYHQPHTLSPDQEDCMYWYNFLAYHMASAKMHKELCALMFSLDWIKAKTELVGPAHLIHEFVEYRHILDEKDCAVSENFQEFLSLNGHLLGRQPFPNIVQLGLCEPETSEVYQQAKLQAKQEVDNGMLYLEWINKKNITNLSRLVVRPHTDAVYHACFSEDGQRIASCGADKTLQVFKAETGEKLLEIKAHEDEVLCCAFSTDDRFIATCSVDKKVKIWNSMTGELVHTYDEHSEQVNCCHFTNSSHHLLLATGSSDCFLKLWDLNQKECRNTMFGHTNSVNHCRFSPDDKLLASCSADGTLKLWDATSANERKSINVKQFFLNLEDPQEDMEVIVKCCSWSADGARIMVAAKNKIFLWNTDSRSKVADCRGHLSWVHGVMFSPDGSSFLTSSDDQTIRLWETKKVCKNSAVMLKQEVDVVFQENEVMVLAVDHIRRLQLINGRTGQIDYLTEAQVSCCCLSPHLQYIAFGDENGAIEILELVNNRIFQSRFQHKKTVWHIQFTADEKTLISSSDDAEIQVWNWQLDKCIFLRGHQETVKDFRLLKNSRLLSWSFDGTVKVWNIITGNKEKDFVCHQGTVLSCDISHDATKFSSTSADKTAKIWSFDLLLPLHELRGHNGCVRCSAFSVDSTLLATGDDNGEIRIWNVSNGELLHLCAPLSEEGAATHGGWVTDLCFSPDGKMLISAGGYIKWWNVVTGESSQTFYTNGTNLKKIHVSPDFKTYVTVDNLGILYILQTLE
Nature of the test: co-immunoprecipitation, tagged proteins transiently expressed in 293T cells. From the text: The CARD and its structurally related death effector domain (DED) are peptide motifs that mediate interactions between apoptosis-regulatory proteins (Science 281:1301 (1998); Hofmann et al., Trends Biochem. Sci. 22:155 (1998)).

A further test has as its target T3, Nod1 V41Q (human, UniProt Q9Y239 1-953).
T3 construct: also called V41 Q point mutant in the CARD
T3 sequence: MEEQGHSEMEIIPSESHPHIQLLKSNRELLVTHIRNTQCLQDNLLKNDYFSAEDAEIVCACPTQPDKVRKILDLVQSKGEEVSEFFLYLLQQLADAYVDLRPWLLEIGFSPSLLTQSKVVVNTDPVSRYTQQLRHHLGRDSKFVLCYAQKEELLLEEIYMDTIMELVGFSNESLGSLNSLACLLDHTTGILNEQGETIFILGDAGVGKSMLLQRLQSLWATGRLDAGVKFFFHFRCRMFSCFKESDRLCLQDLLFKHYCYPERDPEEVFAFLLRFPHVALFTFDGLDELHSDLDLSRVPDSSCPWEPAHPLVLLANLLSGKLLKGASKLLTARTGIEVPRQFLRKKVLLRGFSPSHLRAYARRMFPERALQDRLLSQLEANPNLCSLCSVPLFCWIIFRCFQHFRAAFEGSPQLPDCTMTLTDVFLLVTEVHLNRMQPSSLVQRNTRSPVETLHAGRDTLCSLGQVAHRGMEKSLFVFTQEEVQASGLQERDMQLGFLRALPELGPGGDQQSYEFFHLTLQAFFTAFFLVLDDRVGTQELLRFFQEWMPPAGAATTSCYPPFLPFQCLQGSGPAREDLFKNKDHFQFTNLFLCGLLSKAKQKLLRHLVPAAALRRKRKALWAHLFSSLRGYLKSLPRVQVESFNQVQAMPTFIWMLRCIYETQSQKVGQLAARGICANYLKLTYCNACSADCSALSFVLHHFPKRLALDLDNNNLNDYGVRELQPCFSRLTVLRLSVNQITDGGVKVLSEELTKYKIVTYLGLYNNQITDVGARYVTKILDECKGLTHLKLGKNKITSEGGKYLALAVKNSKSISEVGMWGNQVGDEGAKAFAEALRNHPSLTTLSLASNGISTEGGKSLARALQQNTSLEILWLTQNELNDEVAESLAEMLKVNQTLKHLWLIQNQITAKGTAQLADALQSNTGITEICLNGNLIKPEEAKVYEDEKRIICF
Briefly: co-immunoprecipitation from co-transfected 293T cells, immunoblot.
Source text: as §1
A general note: In western blotting, separated proteins are transferred to a membrane and probed.

For a further test, the target named is T4, RICK (UniProt O43353 1-540).
T4 construct: also called serine-threonine kinase with a CARD
T4 sequence (O43353 whole entry): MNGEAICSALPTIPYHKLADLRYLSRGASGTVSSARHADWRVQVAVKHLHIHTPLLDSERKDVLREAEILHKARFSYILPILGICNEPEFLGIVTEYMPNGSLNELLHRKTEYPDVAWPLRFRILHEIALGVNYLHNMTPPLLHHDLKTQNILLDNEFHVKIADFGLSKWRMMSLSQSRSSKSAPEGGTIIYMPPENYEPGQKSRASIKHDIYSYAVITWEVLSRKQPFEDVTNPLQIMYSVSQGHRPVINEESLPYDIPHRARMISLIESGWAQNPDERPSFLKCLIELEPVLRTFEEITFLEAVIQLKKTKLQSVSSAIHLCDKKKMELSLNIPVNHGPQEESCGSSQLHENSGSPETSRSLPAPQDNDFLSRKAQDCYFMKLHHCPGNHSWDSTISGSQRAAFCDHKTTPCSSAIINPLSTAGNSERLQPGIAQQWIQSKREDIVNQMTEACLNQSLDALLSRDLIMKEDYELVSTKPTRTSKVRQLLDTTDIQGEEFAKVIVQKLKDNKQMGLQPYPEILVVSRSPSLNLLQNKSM
Briefly: co-transfection of WT or mutant Nod1 and RICK in 293T cells.

The test “Caspase-9” addresses B1. Briefly: co-immunoprecipitation from co-transfected 293T cells, immunoblot.
Source text: as §1

Turning to B1, in test [1], the binding result is on record as “no binding”.

B2: Nod1 (other)
chain: MEEQGHSEMEIIPSESHPHIQLLKSNRELLVTHIRNTQCLVDNLLKNDYFSAEDAEIVCACPTQPDKVRKILDLVQSKGEEVSEFFLYLLQQLADAYVDLRPWLLEIGFSPSLLTQSKVVVNTDPVSRYTQQLRHHLGRDSKFVLCYAQKEELLLEEIYMDTIMELVGFSNESLGSLNSLACLLDHTTGILNEQGETIFILGDAGVGKSMLLQRLQSLWATGRLDAGVKFFFHFRCRMFSCFKESDRLCLQDLLFKHYCYPERDPEEVFAFLLRFPHVALFTFDGLDELHSDLDLSRVPDSSCPWEPAHPLVLLANLLSGKLLKGASKLLTARTGIEVPRQFLRKKVLLRGFSPSHLRAYARRMFPERALQDRLLSQLEANPNLCSLCSVPLFCWIIFRCFQHFRAAFEGSPQLPDCTMTLTDVFLLVTEVHLNRMQPSSLVQRNTRSPVETLHAGRDTLCSLGQVAHRGMEKSLFVFTQEEVQASGLQERDMQLGFLRALPELGPGGDQQSYEFFHLTLQAFFTAFFLVLDDRVGTQELLRFFQEWMPPAGAATTSCYPPFLPFQCLQGSGPAREDLFKNKDHFQFTNLFLCGLLSKAKQKLLRHLVPAAALRRKRKALWAHLFSSLRGYLKSLPRVQVESFNQVQAMPTFIWMLRCIYETQSQKVGQLAARGICANYLKLTYCNACSADCSALSFVLHHFPKRLALDLDNNNLNDYGVRELQPCFSRLTVLRLSVNQITDGGVKVLSEELTKYKIVTYLGLYNNQITDVGARYVTKILDECKGLTHLKLGKNKITSEGGKYLALAVKNSKSISEVGMWGNQVGDEGAKAFAEALRNHPSLTTLSLASNGISTEGGKSLARALQQNTSLEILWLTQNELNDEVAESLAEMLKVNQTLKHLWLIQNQITAKGTAQLADALQSNTGITEICLNGNLIKPEEAKVYEDEKRIICF
notes: also called wild-type Nod1; WT Nod1
As to B2, the binding result with Apaf-1 is recorded as “no binding”.

B3: Caspase-9 C287S (enzyme, UniProt P55211 1-416, looked up)
chain: MDEADRRLLRRCRLRLVEELQVDQLWDALLSRELFRPHMIEDIQRAGSGSRRDQARQLIIDLETRGSQALPLFISCLEDTGQDMLASFLRTNRQAAKLSKPTLENLTPVVLRPEIRKPEVLRPETPRPVDIGSGGFGDVGALESLRGNADLAYILSMEPCGHCLIINNVNFCRESGLRTRTGSNIDCEKLRRRFSSLHFMVEVKGDLTAKKMVLALLELAQQDHGALDCCVVVILSHGCQASHLQFPGAVYGTDGCPVSVEKIVNIFNGTSCPSLGGKPKLFFIQASGGEQKDHGFEVASTSPEDESPGSNPEPDATPFQEGLRTFDQLDAISSLPTPSDIFVSYSTFPGFVSWRDPKSGSWYVETLDDIFEQWAHSEDLQSLLLRVANAVSVKGIYKQMPGCFNFLRKKLFFKTS
notes: Named only once, in the sentence on Nod1 V41Q
Take B3: the binding result with Nod1 V41Q is “no binding”.

B4: Nod1 mutant, residues 649-953 (other)
chain: MPTFIWMLRCIYETQSQKVGQLAARGICANYLKLTYCNACSADCSALSFVLHHFPKRLALDLDNNNLNDYGVRELQPCFSRLTVLRLSVNQITDGGVKVLSEELTKYKIVTYLGLYNNQITDVGARYVTKILDECKGLTHLKLGKNKITSEGGKYLALAVKNSKSISEVGMWGNQVGDEGAKAFAEALRNHPSLTTLSLASNGISTEGGKSLARALQQNTSLEILWLTQNELNDEVAESLAEMLKVNQTLKHLWLIQNQITAKGTAQLADALQSNTGITEICLNGNLIKPEEAKVYEDEKRIICF
notes: also called the LRRs of Nod1; mutant containing the LRRs
Turning to B4, the binding result in the test with RICK and with Caspase-9 was “no binding” each time.
